The values that follow come from PMC9879991, “Biomolecular condensates formed by designer minimalistic peptides” (Nature Communications, 2023).

No end group written: not given here.

One data set deals with Nterm1 (position 1, -----WGRGRG). The data set is described as follows: NMR. Conditions: 300 K (general NMR methods statement; not restated for the titration), NaCl 0-0.2 M used in NMR samples, concentration for the pKa titration not given, 20 mM Tris (NMR methods), Free peptide in solution, disordered.
In general, pKa refers to the pH at which an ionisable group is half protonated. As for WGRGRGRGWPGVGF [WGR-3 designer LLPS peptide (Tyr14 to Phe variant of WGR-1) (synthetic construct; Y14F)], the pKa is 7.49 ± 0.01.

Turning to WGRGRGRGWY [WGR-4 designer LLPS peptide (WGR-1 without the ELP motif) (synthetic construct; del10-13)], the pKa turned out to be 7.37 ± 0.01.

Turning to WGRGRGWPGVGY, the pKa turned out to be 7.51 ± 0.01.

As for WGRGRGRGWPGVGY [WGR-1 designer LLPS peptide (synthetic construct)], the pKa is given as 7.50 ± 0.01.

Tested on in a further data set: not given
Assay: not given
The note with it: solution NMR, Trp1-Hα and Trp1-Hβ shifts at pH 6.0, 7.0, 7.5, 8.0, 9.0, Henderson-Hasselbach fit; error by Monte Carlo.
Take WGRGRGRGWPGVGF [WGR-3]: the “pKa of the N-terminal amine group” value is reported as 7.49 ± 0.01.

With WGRGRGWPGVGY [WGR-5], the “pKa of the N-terminal amine group” value came to 7.51 ± 0.01.

For the molecule WGRGRGRGWY [WGR-4], the “pKa of the N-terminal amine group” value is listed as 7.37 ± 0.01.
